# Assay results reported in patent publication US20250218531A1 (ABSCI, published 2025).
# Where “and” joins values, the source holds several entries; their conditions need not be identical. Identical values can stand only once.
# Target: human epidermal growth factor receptor 2 (HER2) extracellular domain (human, UniProt P04626 23-629)
# Experiment: SPR
Binder,Kd,log(KD (M))
"Trastuzumab HCDR3 variant ARYGPYYYYAMDY (Fab, V domains shown) VH: EVQLVESGGGLVQPGGSLRLSCAASGFNIKDTYIHWVRQAPGKGLEWVARIYPTNGYTRYADSVKGRFTISADTSKNTAYLQMNSLRAEDTAVYYCARYGPYYYYAMDYWGQGTLVTVSS VL: not shown",41.3 nM and 41.2 nM,-7.38 log(M)
"Trastuzumab HCDR3 variant ARYYYDFGYYFDY (Fab, V domains shown) VH: EVQLVESGGGLVQPGGSLRLSCAASGFNIKDTYIHWVRQAPGKGLEWVARIYPTNGYTRYADSVKGRFTISADTSKNTAYLQMNSLRAEDTAVYYCARYYYDFGYYFDYWGQGTLVTVSS VL: not shown",42.8 nM,-7.37 log(M)
"Trastuzumab HCDR3 variant ARYPSGYYYYFDY (Fab, V domains shown) VH: EVQLVESGGGLVQPGGSLRLSCAASGFNIKDTYIHWVRQAPGKGLEWVARIYPTNGYTRYADSVKGRFTISADTSKNTAYLQMNSLRAEDTAVYYCARYPSGYYYYFDYWGQGTLVTVSS VL: not shown",90.1 nM,-7.05 log(M)
"Trastuzumab HCDR3 variant TRYRGAHGYYFDY (Fab, V domains shown) VH: EVQLVESGGGLVQPGGSLRLSCAASGFNIKDTYIHWVRQAPGKGLEWVARIYPTNGYTRYADSVKGRFTISADTSKNTAYLQMNSLRAEDTAVYYCTRYRGAHGYYFDYWGQGTLVTVSS VL: not shown",35.5 nM,-7.45 log(M)
"Trastuzumab HCDR3 variant ATGYGYLLYSDHD (Fab, V domains shown) VH: EVQLVESGGGLVQPGGSLRLSCAASGFNIKDTYIHWVRQAPGKGLEWVARIYPTNGYTRYADSVKGRFTISADTSKNTAYLQMNSLRAEDTAVYYCATGYGYLLYSDHDWGQGTLVTVSS VL: not shown",171 nM,-6.77 log(M)
"Trastuzumab HCDR3 variant ARYPGGGIYDFDP (Fab, V domains shown) VH: EVQLVESGGGLVQPGGSLRLSCAASGFNIKDTYIHWVRQAPGKGLEWVARIYPTNGYTRYADSVKGRFTISADTSKNTAYLQMNSLRAEDTAVYYCARYPGGGIYDFDPWGQGTLVTVSS VL: not shown",39.9 nM,-7.4 log(M)
"Trastuzumab HCDR3 variant ARYGYGAYYYFDY (Fab, V domains shown) VH: EVQLVESGGGLVQPGGSLRLSCAASGFNIKDTYIHWVRQAPGKGLEWVARIYPTNGYTRYADSVKGRFTISADTSKNTAYLQMNSLRAEDTAVYYCARYGYGAYYYFDYWGQGTLVTVSS VL: not shown",54 nM,-7.27 log(M)
"Trastuzumab HCDR3 variant ARYGRNGSYSYDY (Fab, V domains shown) VH: EVQLVESGGGLVQPGGSLRLSCAASGFNIKDTYIHWVRQAPGKGLEWVARIYPTNGYTRYADSVKGRFTISADTSKNTAYLQMNSLRAEDTAVYYCARYGRNGSYSYDYWGQGTLVTVSS VL: not shown",38.2 nM,-7.42 log(M)
"Trastuzumab HCDR3 variant TRWRWGYGYYFDF (Fab, V domains shown) VH: EVQLVESGGGLVQPGGSLRLSCAASGFNIKDTYIHWVRQAPGKGLEWVARIYPTNGYTRYADSVKGRFTISADTSKNTAYLQMNSLRAEDTAVYYCTRWRWGYGYYFDFWGQGTLVTVSS VL: not shown",78.1 nM,-7.11 log(M)
"Trastuzumab HCDR3 variant ARYGYDYYYYFDV (Fab, V domains shown) VH: EVQLVESGGGLVQPGGSLRLSCAASGFNIKDTYIHWVRQAPGKGLEWVARIYPTNGYTRYADSVKGRFTISADTSKNTAYLQMNSLRAEDTAVYYCARYGYDYYYYFDVWGQGTLVTVSS VL: not shown",50 nM,-7.3 log(M)
"Trastuzumab HCDR3 variant ARYYSDYSYTFSY (Fab, V domains shown) VH: EVQLVESGGGLVQPGGSLRLSCAASGFNIKDTYIHWVRQAPGKGLEWVARIYPTNGYTRYADSVKGRFTISADTSKNTAYLQMNSLRAEDTAVYYCARYYSDYSYTFSYWGQGTLVTVSS VL: not shown",112 nM,-6.95 log(M)
"Trastuzumab HCDR3 variant ARYNPFDGFYFDV (Fab, V domains shown) VH: EVQLVESGGGLVQPGGSLRLSCAASGFNIKDTYIHWVRQAPGKGLEWVARIYPTNGYTRYADSVKGRFTISADTSKNTAYLQMNSLRAEDTAVYYCARYNPFDGFYFDVWGQGTLVTVSS VL: not shown",156 nM,-6.81 log(M)
"Trastuzumab HCDR3 variant ARYIFGGPYYFDY (Fab, V domains shown) VH: EVQLVESGGGLVQPGGSLRLSCAASGFNIKDTYIHWVRQAPGKGLEWVARIYPTNGYTRYADSVKGRFTISADTSKNTAYLQMNSLRAEDTAVYYCARYIFGGPYYFDYWGQGTLVTVSS VL: not shown",36 nM,-7.44 log(M)
"Trastuzumab HCDR3 variant ATSGSVDRYDYVY (Fab, V domains shown) VH: EVQLVESGGGLVQPGGSLRLSCAASGFNIKDTYIHWVRQAPGKGLEWVARIYPTNGYTRYADSVKGRFTISADTSKNTAYLQMNSLRAEDTAVYYCATSGSVDRYDYVYWGQGTLVTVSS VL: not shown",155 nM,-6.81 log(M)
"Trastuzumab HCDR3 variant ARYGTGTYYYFLH (Fab, V domains shown) VH: EVQLVESGGGLVQPGGSLRLSCAASGFNIKDTYIHWVRQAPGKGLEWVARIYPTNGYTRYADSVKGRFTISADTSKNTAYLQMNSLRAEDTAVYYCARYGTGTYYYFLHWGQGTLVTVSS VL: not shown",42.3 nM and 42.2 nM,-7.37 log(M)
"Trastuzumab HCDR3 variant SRYGRGVYYYFDY (Fab, V domains shown) VH: EVQLVESGGGLVQPGGSLRLSCAASGFNIKDTYIHWVRQAPGKGLEWVARIYPTNGYTRYADSVKGRFTISADTSKNTAYLQMNSLRAEDTAVYYCSRYGRGVYYYFDYWGQGTLVTVSS VL: not shown",79.7 nM,-7.1 log(M)

Binder,Kd,log(KD (M))
"Trastuzumab HCDR3 variant SRYYDYNYYFMDY (Fab, V domains shown) VH: EVQLVESGGGLVQPGGSLRLSCAASGFNIKDTYIHWVRQAPGKGLEWVARIYPTNGYTRYADSVKGRFTISADTSKNTAYLQMNSLRAEDTAVYYCSRYYDYNYYFMDYWGQGTLVTVSS VL: not shown",141 nM,-6.85 log(M)
"Trastuzumab HCDR3 variant SYPDFGYYVYFAY (Fab, V domains shown) VH: EVQLVESGGGLVQPGGSLRLSCAASGFNIKDTYIHWVRQAPGKGLEWVARIYPTNGYTRYADSVKGRFTISADTSKNTAYLQMNSLRAEDTAVYYCSYPDFGYYVYFAYWGQGTLVTVSS VL: not shown",36.8 nM,-7.43 log(M)
"Trastuzumab HCDR3 variant ASSGRLDLYDFRL (Fab, V domains shown) VH: EVQLVESGGGLVQPGGSLRLSCAASGFNIKDTYIHWVRQAPGKGLEWVARIYPTNGYTRYADSVKGRFTISADTSKNTAYLQMNSLRAEDTAVYYCASSGRLDLYDFRLWGQGTLVTVSS VL: not shown",171 nM,-6.77 log(M)
"Trastuzumab HCDR3 variant ATGSGGGGFSYGY (Fab, V domains shown) VH: EVQLVESGGGLVQPGGSLRLSCAASGFNIKDTYIHWVRQAPGKGLEWVARIYPTNGYTRYADSVKGRFTISADTSKNTAYLQMNSLRAEDTAVYYCATGSGGGGFSYGYWGQGTLVTVSS VL: not shown",182 nM,-6.74 log(M)
"Trastuzumab HCDR3 variant ARYPNYGFYMFDY (Fab, V domains shown) VH: EVQLVESGGGLVQPGGSLRLSCAASGFNIKDTYIHWVRQAPGKGLEWVARIYPTNGYTRYADSVKGRFTISADTSKNTAYLQMNSLRAEDTAVYYCARYPNYGFYMFDYWGQGTLVTVSS VL: not shown",33.3 nM,-7.48 log(M)
"Trastuzumab HCDR3 variant ARYYSYGGYYFDY (Fab, V domains shown) VH: EVQLVESGGGLVQPGGSLRLSCAASGFNIKDTYIHWVRQAPGKGLEWVARIYPTNGYTRYADSVKGRFTISADTSKNTAYLQMNSLRAEDTAVYYCARYYSYGGYYFDYWGQGTLVTVSS VL: not shown",106 nM,-6.98 log(M)
"Trastuzumab HCDR3 variant ASYGSGSYFSFPL (Fab, V domains shown) VH: EVQLVESGGGLVQPGGSLRLSCAASGFNIKDTYIHWVRQAPGKGLEWVARIYPTNGYTRYADSVKGRFTISADTSKNTAYLQMNSLRAEDTAVYYCASYGSGSYFSFPLWGQGTLVTVSS VL: not shown",53.9 nM,-7.27 log(M)
"Trastuzumab HCDR3 variant ARYLTDADFRLHY (Fab, V domains shown) VH: EVQLVESGGGLVQPGGSLRLSCAASGFNIKDTYIHWVRQAPGKGLEWVARIYPTNGYTRYADSVKGRFTISADTSKNTAYLQMNSLRAEDTAVYYCARYLTDADFRLHYWGQGTLVTVSS VL: not shown",75.1 nM,-7.12 log(M)
"Trastuzumab HCDR3 variant ASVDLGGFYDFRY (Fab, V domains shown) VH: EVQLVESGGGLVQPGGSLRLSCAASGFNIKDTYIHWVRQAPGKGLEWVARIYPTNGYTRYADSVKGRFTISADTSKNTAYLQMNSLRAEDTAVYYCASVDLGGFYDFRYWGQGTLVTVSS VL: not shown",46.1 nM,-7.34 log(M)
"Trastuzumab HCDR3 variant AVYGPYGGFSYDS (Fab, V domains shown) VH: EVQLVESGGGLVQPGGSLRLSCAASGFNIKDTYIHWVRQAPGKGLEWVARIYPTNGYTRYADSVKGRFTISADTSKNTAYLQMNSLRAEDTAVYYCAVYGPYGGFSYDSWGQGTLVTVSS VL: not shown",70.7 nM,-7.15 log(M)
"Trastuzumab HCDR3 variant ARYMRPAFYPFLY (Fab, V domains shown) VH: EVQLVESGGGLVQPGGSLRLSCAASGFNIKDTYIHWVRQAPGKGLEWVARIYPTNGYTRYADSVKGRFTISADTSKNTAYLQMNSLRAEDTAVYYCARYMRPAFYPFLYWGQGTLVTVSS VL: not shown",50.9 nM,-7.29 log(M)
"Trastuzumab HCDR3 variant ASYYAPGSYGFDP (Fab, V domains shown) VH: EVQLVESGGGLVQPGGSLRLSCAASGFNIKDTYIHWVRQAPGKGLEWVARIYPTNGYTRYADSVKGRFTISADTSKNTAYLQMNSLRAEDTAVYYCASYYAPGSYGFDPWGQGTLVTVSS VL: not shown",135 nM,-6.87 log(M)
"Trastuzumab HCDR3 variant ARYVTANTYSYDP (Fab, V domains shown) VH: EVQLVESGGGLVQPGGSLRLSCAASGFNIKDTYIHWVRQAPGKGLEWVARIYPTNGYTRYADSVKGRFTISADTSKNTAYLQMNSLRAEDTAVYYCARYVTANTYSYDPWGQGTLVTVSS VL: not shown",83.6 nM and 83.5 nM,-7.08 log(M)
"Trastuzumab HCDR3 variant TRYYGDGYYDFDY (Fab, V domains shown) VH: EVQLVESGGGLVQPGGSLRLSCAASGFNIKDTYIHWVRQAPGKGLEWVARIYPTNGYTRYADSVKGRFTISADTSKNTAYLQMNSLRAEDTAVYYCTRYYGDGYYDFDYWGQGTLVTVSS VL: not shown",29.2 nM,-7.53 log(M)
"Trastuzumab HCDR3 variant ARYYYDYGYYFDV (Fab, V domains shown) VH: EVQLVESGGGLVQPGGSLRLSCAASGFNIKDTYIHWVRQAPGKGLEWVARIYPTNGYTRYADSVKGRFTISADTSKNTAYLQMNSLRAEDTAVYYCARYYYDYGYYFDVWGQGTLVTVSS VL: not shown",30 nM,-7.52 log(M)
